Results published in IntAct's records for PubMed 29039417.

B1: Protein PTHB1 (Homo sapiens), Q3SYG4 (parent)
chain: MSLFKARDWWSTILGDKEEFDQGCLCLANVDNSGNGQDKIIVGSFMGYLRIFSPHPAKTGDGAQAEDLLLEVDLRDPVLQVEVGKFVSGTEMLHLAVLHSRKLCVYSVSGTLGNVEHGNQCQMKLMYEHNLQRTACNMTYGSFGGVKGRDLICIQSMDGMLMVFEQESYAFGRFLPGFLLPGPLAYSSRTDSFLTVSSCQQVESYKYQVLAFATDADKRQETEQQKLGSGKRLVVDWTLNIGEQALDICIVSFNQSASSVFVLGERNFFCLKDNGQIRFMKKLDWSPSCFLPYCSVSEGTINTLIGNHNNMLHIYQDVTLKWATQLPHIPVAVRVGCLHDLKGVIVTLSDDGHLQCSYLGTDPSLFQAPNVQSRELNYDELDVEMKELQKIIKDVNKSQGVWPMTEREDDLNVSVVVSPNFDSVSQATDVEVGTDLVPSVTVKVTLQNRVILQKAKLSVYVQPPLELTCDQFTFEFMTPDLTRTVSFSVYLKRSYTPSELEGNAVVSYSRPTDRNPDGIPRVIQCKFRLPLKLICLPGQPSKTASHKITIDTNKSPVSLLSLFPGFASQSDDDQVNVMGFHFLGGARITVLASKTSQRYRIQSEQFEDLWLITNELILRLQEYFEKQGVKDFACSFSGSIPLQEYFELIDHHFELRINGEKLEELLSERAVQFRAIQRRLLARFKDKTPAPLQHLDTLLDGTYKQVIALADAVEENQGNLFQSFTRLKSATHLVILLIALWQKLSADQVAILEAAFLPLQEDTQELGWEETVDAAISHLLKTCLSKSSKEQALNLNSQLNIPKDTSQLKKHITLLCDRLSKGGRLCLSTDAAAPQTMVMPGGCTTIPESDLEERSVEQDSTELFTNHRHLTAETPRPEVSPLQGVSE
partner: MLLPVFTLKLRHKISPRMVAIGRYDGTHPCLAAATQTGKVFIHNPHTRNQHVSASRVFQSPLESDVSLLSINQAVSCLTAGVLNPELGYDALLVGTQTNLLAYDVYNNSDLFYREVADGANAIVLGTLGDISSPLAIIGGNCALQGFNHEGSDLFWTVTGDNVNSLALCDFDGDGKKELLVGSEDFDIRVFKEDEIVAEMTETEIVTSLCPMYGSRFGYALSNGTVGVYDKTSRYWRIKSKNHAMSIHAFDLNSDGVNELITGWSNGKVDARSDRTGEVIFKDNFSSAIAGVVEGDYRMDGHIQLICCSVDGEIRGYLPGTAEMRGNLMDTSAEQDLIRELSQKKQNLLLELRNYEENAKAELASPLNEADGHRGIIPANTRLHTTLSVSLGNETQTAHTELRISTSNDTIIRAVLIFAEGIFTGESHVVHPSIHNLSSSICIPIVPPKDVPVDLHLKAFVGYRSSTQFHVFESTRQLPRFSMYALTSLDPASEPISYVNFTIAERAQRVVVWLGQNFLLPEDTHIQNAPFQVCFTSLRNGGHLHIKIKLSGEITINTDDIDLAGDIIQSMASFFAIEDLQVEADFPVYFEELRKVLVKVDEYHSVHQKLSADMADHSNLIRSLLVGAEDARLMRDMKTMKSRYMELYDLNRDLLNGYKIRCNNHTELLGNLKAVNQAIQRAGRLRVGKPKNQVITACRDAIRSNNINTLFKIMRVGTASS
B2: Protein PTHB1 (Homo sapiens), Q3SYG4 (parent)
chain: B1 chain
partner: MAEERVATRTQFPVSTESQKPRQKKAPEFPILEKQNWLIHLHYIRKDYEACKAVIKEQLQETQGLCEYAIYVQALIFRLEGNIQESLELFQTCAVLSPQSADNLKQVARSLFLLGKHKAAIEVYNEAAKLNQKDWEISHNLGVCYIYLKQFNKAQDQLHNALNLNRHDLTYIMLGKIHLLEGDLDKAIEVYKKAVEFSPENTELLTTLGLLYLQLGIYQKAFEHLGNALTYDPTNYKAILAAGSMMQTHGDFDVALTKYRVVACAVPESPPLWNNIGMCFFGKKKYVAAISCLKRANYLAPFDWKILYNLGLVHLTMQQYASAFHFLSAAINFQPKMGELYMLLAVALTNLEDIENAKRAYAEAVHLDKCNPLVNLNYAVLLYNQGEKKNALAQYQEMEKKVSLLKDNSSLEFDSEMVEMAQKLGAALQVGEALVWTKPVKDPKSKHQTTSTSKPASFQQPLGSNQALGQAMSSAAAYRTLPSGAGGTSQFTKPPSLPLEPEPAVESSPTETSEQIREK

Variants of: B1
Conditions: with bbs2_human BBS2, Q9BXC9

Row | effect of a mutation on the interaction | Variant
1 | with no effect | E862K
2 | with no effect | E862A
3 | with no effect | R876E
4 | with no effect | R876A
5 | with no effect | R876K
6 | with no effect | P881E
7 | with no effect | P881A
8 | with no effect | P881K
9 | with no effect | P877K
10 | with no effect | P877A
11 | with no effect | P877E
12 | with no effect | L882A
13 | with no effect | L882E
14 | with no effect | L882K
15 | with no effect | P875E
16 | with no effect | P875K
17 | with no effect | P875A
18 | with no effect | R868A
19 | with no effect | R868E
20 | with no effect | R868K
21 | with no effect | S886E
22 | with no effect | S886A
23 | with no effect | S886K
24 | with no effect | L863E
25 | with no effect | L863K

Row | effect of a mutation on the interaction | Variant
26 | with no effect | L863A
27 | with no effect | E878K
28 | with no effect | E878A
29 | with no effect | T874E
30 | with no effect | T874K
31 | with no effect | T874A
32 | with no effect | G884E
33 | with no effect | G884K
34 | with no effect | G884A
35 | with no effect | L870A
36 | with no effect | L870K
37 | with no effect | L870E
38 | with no effect | F864A
39 | with no effect | F864K
40 | with no effect | F864E
41 | with no effect | V879A
42 | with no effect | V879K
43 | with no effect | V879E
44 | with no effect | V885E
45 | with no effect | V885K
46 | with no effect | V885A
47 | with no effect | T861K
48 | with no effect | T871E
49 | with no effect | T871K
50 | with no effect | T871A

Row | effect of a mutation on the interaction | Variant
51 | with no effect | E887A
52 | with no effect | E887K
53 | with no effect | T865K
54 | with no effect | T865A
55 | with no effect | T865E
56 | with no effect | S880K
57 | with no effect | S880A
58 | with no effect | S880E
59 | with no effect | H869K
60 | with no effect | H869A
61 | with no effect | H869E
62 | with no effect | H867A
63 | with no effect | H867K
64 | with no effect | H867E
65 | with no effect | N866A
66 | with no effect | N866E
67 | with no effect | N866K
68 | with no effect | A872K
69 | with no effect | A872E
70 | with no effect | Q883E
71 | with no effect | Q883K
72 | with no effect | Q883A
73 | with no effect | E873A
74 | with no effect | E873K

Variants of: B2
Conditions: with bbs4_human BBS4, Q96RK4

Row | effect of a mutation on the interaction | Variant
75 | with no effect | E431A
76 | with no effect | E431K
77 | with no effect | S439A
78 | with no effect | S439K
79 | with no effect | S439E
80 | with no effect | V432A
81 | with no effect | V432E
82 | with no effect | V432K
83 | with no effect | V416E
84 | with no effect | V416K
85 | with no effect | V416A
86 | with no effect | D429E
87 | with no effect | D429K
88 | with no effect | D429A
89 | with no effect | V424K
90 | with no effect | V424A
91 | with no effect | V424E
92 | with no effect | A427K
93 | with no effect | A427E
94 | with no effect | V442K
95 | with no effect | V442A
96 | with no effect | V442E
97 | with no effect | V437E

Row | effect of a mutation on the interaction | Variant
98 | with no effect | V437A
99 | with no effect | V437K
100 | with no effect | D422A
101 | with no effect | D422K
102 | with no effect | D422E
103 | with no effect | E408K
104 | with no effect | E408A
105 | with no effect | L436A
106 | with no effect | L436K
107 | with no effect | L436E
108 | with no effect | S414E
109 | with no effect | S414K
110 | with no effect | S414A
111 | with no effect | P419A
112 | with no effect | P419E
113 | with no effect | P419K
114 | with no effect | N420E
115 | with no effect | N420K
116 | with no effect | N420A
117 | with no effect | V415A
118 | with no effect | V415E
119 | with no effect | V415K
120 | with no effect | R407E

Row | effect of a mutation on the interaction | Variant
121 | with no effect | R407A
122 | with no effect | R407K
123 | with no effect | F421E
124 | with no effect | F421A
125 | with no effect | F421K
126 | disrupting interaction strength | V440K
127 | with no effect | V440E
128 | with no effect | V440A
129 | with no effect | D409E
130 | with no effect | D409K
131 | with no effect | D409A
132 | with no effect | E406K
133 | with no effect | E406A
134 | with no effect | N412E
135 | with no effect | N412A
136 | with no effect | N412K
137 | with no effect | G433E
138 | with no effect | G433K
139 | with no effect | G433A
140 | with no effect | K443A
141 | with no effect | K443E
142 | with no effect | T434E
143 | with no effect | T434A

Row | effect of a mutation on the interaction | Variant
144 | with no effect | T434K
145 | with no effect | V413A
146 | with no effect | V413K
147 | with no effect | V413E
148 | with no effect | P438E
149 | with no effect | P438K
150 | with no effect | P438A
151 | with no effect | T405A
152 | with no effect | T405K
153 | with no effect | T405E
154 | with no effect | D435A
155 | with no effect | D435E
156 | with no effect | D435K
157 | with no effect | L411K
158 | with no effect | L411A
159 | with no effect | L411E
160 | with no effect | S418A
161 | with no effect | S418K
162 | with no effect | S418E
163 | with no effect | T428K
164 | with no effect | T428A
165 | with no effect | T428E
166 | with no effect | V444A

Row | effect of a mutation on the interaction | Variant
167 | with no effect | V417A
168 | with no effect | V417K
169 | with no effect | V417E
170 | with no effect | S423E
171 | with no effect | S423K
172 | with no effect | S423A
173 | with no effect | Q426E
174 | with no effect | Q426A
175 | with no effect | Q426K
176 | with no effect | D410K
177 | with no effect | D410E
178 | with no effect | D410A
179 | with no effect | S425E
180 | with no effect | S425K
181 | with no effect | S425A
182 | with no effect | T441K
183 | with no effect | T441A
184 | with no effect | T441E
185 | with no effect | V430E
186 | with no effect | V430A
187 | with no effect | V430K
